This test has as its target SARS-CoV-2-3Q-FL spike (without 2P) (SARS-CoV-2) (UniProt P0DTC2). Description: cryo-EM structure.

As a reminder, the stoichiometry N is a count of units in the complex or per binding partner.

“SARS-CoV-2-3Q-FL spike (without 2P) (from UniProt P0DTC2 14-1273) (natural protein)” yielded a stoichiometry N of 3.

The values are drawn from article PMC7857404.
